Assay results reported in patent US20250152729A1 (CANCER RESEARCH TECHNOLOGY, published 2025).

T1: mouse SEMA4A expressed on expi293 cells (UniProt ID Q62178) (mouse, UniProt Q62178 33-760)
T1 construct: Transient transfection in expi293 cells
T1 sequence: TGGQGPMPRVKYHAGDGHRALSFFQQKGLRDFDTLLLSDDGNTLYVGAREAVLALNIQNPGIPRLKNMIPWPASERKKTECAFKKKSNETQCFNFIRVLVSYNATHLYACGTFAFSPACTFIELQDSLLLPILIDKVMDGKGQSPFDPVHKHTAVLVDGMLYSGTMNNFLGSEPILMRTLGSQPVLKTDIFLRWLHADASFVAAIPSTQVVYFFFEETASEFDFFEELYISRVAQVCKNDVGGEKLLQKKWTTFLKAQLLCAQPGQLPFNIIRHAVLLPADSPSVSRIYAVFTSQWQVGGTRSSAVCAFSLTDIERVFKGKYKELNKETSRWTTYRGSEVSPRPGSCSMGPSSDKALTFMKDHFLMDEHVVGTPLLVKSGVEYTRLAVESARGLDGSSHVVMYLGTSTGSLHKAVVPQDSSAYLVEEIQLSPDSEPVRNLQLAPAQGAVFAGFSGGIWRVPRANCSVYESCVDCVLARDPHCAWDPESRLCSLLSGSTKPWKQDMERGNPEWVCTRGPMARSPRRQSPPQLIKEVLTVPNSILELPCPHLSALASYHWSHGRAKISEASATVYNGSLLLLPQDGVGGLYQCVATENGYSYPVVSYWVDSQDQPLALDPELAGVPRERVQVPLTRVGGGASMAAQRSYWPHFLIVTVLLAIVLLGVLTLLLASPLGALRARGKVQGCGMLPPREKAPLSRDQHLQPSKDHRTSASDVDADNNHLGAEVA

T2: human SEMA4A expressed on cells (UniProt ID Q9H3S1, isoform 1) (human, UniProt Q9H3S1 33-761)
T2 construct: Cell-surface SEMA4A: endogenous on MM.1S, NCI-H929 and Karpas-25 cells, or expi293 cells transfected with Origene SC323738; also called human Semaphorin4A; SEMA4A endogenously expressed on MM.1S cells
T2 sequence: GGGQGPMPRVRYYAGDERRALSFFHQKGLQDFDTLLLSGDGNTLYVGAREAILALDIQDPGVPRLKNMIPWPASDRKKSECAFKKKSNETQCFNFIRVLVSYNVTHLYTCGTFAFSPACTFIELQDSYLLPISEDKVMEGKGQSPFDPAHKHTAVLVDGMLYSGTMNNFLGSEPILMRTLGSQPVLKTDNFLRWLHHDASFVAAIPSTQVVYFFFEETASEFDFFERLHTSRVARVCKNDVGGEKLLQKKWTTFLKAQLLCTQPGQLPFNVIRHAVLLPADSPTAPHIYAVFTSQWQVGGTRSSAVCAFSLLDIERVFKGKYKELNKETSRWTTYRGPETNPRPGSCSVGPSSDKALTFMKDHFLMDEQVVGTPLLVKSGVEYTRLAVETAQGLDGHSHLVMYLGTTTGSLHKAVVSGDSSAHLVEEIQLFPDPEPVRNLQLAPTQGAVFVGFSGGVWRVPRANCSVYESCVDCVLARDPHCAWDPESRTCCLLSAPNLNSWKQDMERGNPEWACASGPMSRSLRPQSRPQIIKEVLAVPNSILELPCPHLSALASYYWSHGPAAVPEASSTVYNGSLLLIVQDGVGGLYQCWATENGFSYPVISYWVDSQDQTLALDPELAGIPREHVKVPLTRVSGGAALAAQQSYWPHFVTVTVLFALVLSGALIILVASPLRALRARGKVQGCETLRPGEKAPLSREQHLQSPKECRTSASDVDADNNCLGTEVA


Key:
[1] = target: T1, mouse SEMA4A expressed on expi293 cells …; assay: Mirrorball direct binding, dilution series on expi293 cells transiently transfected with mouse SEMA4A, anti-human Alexa Fluor 647
Source text: Hits from the primary screening were re-formatted into the human Alya IgG1 vector and re-expressed and purified as described in section 4.1. In addition, a single clone was identified that contained an Asparagine deamidation motif (Asn Gly) within its VHCDR2. This potential sequence liability was de-risked by synthesising de novo two clonal variant VH genes (Asn Ala and Gln Gly) and cloning these sequences into the human Alya IgG1 expression vector. To determine the specificity profile of each purified human Alya IgG1, a dilution series was tested for binding to human SEMA4A, mouse SEMA4A, cyno SEMA4A, human SEMA4B and mock transfected cells (transient transfections set up in expi 293 cells.) The five assays employed methods described in section 2.3, using the appropriate cells and substituting the un-purified scFv periplasmic preparation with the recombinant human Alya IgG1 dilution series. Data was analysed as Count x median mean intensity (x FLU).

[2] = target: T2, human SEMA4A expressed on cells …; assay: Mirrorball epitope competition on MM.1S cells; competitor: fixed 5E3 mouse IgG1
Source text: The 5E3 epitope competition assay assessed the ability of the un-purified IgGs expressed in a human IgG1 backbone to compete for binding to the mouse 5E3 epitope on human SEMA4A endogenously expressed by MM.1S cells, a human multiple myeloma cell line. The assay utilised a secondary-Alexa Fluor 647 conjugate, 5E3 expressed in a mouse IgG1 (A) backbone (BioLegend®, San Diego, CA, 148402) and a Mirrorball fluorescence cytometer (SPT Labtech, UK). Binding of 5E3 mouse IgG1 to MM.1S cells was measured via an anti-mouse secondary labelled with Alexa Fluor 647 (Invitrogen, A21235) in the presence of a single concentration of each un-purified human IgG1. […] 10 μl undiluted un-purified IgG, contained in Expi293 expression medium (Gibco, UK, A1435101), were added to the assay plate (Greiner Bio-one, UK, 781906), followed by 10 ul of 1.2 nM 5E3 mouse IgG1 and 20 μl MM.1S cell suspension containing 1,500 cells that was spiked with 4 nM anti-mouse Alexa Fluor 647. The assay plate was incubated for 4 hours at room temperature, in the dark prior to reading on a Mirrorball fluorescence cytometer (SPT Labtech, UK) using a 640 nm laser for excitation and measuring emission in the FL-4 channel (650-690 nm). Data was analysed as Count x median mean intensity (x FLU). All dilutions were performed in Hanks' balanced salt solution (Sigma, UK; cat: H8264) containing 0.1% (w/V) BSA (Sigma, UK; cat: A9576). Maximum binding signal was determined by analysing the binding of 5E3 mouse IgG1 to MM.1S cells in the absence of competitor un-purified human IgG1. Background binding signal was determined by analysing the fluorescence generated in the absence of 5E3 mouse IgG1. Data were analysed and graphed using GraphPad Prism software (GraphPad Software, Inc, La Jolla, CA).
Hits from the primary screening were re-formatted into the human Alya IgG1 vector and re-expressed and purified as described in section 4.1. 5E3 epitope competition assay methods are described in section 3.2 and were used to test purified human Alya IgG1s. The purified human Alya IgG1s were diluted to a 4× stock and then serially diluted using 4-fold dilutions to generate a 10 point concentration response curve.

[3] = target: T2, human SEMA4A expressed on cells …; assay: cell-based or functional assay

Row | Binder | binding result [1] | IC50 [2] | IC50 (pM), Fab-ZAP cell kill, NCI-H929 [3] | Max % Cell Kill, Fab-ZAP, NCI-H929 [3]
1 | C0120905 human Alya IgG1 (antibody, V domains shown, Fully human, phage display derived; human IgG1 Alya constant (239iCys, S442C, EU); unconjugated) VH: not shown VL: NFMLTQPHSVSESPGKTVTISCTGSGGNIVDNFVQWHQQRPGSAPRTVIYEDDQRPSGVPDRFSASVDSSSNSGTLSISGLKTEDEADYYCQSYDGANRWVFGGGTKLTVL | binds |  |  | 
2 | C0120914 human Alya IgG1 (antibody, V domains shown, Fully human, phage display derived; human IgG1 Alya constant (239iCys, S442C, EU); unconjugated) VH: QVQLQESGPGLVKPSETLSLTCTVSGGSVSSGRYDWSWIRQPPGKGLEWIGHIYYTGITDYNPSLRSRVTISADKPKNQFSLKLNSVTAADTAVYYCARGPFFDPWGQGTMVTVSS VL: QSVLTQPPSVSVAPGQTASLTCGANNIGSKSVQWYQQKPGQAPVLVVYDGSDRPSGIPDRFSGSSSENTATLTISRVEAGDEADYYCQLWDSVTDRPVFGGGTKVTVL | binds |  |  | 
3 | C0120917 human Alya IgG1 (antibody, V domains shown, Fully human, phage display derived; human IgG1 Alya constant (239iCys, S442C, EU); unconjugated) VH: not shown VL: NFMLTQPHSVSESPGKTVTISCTASGDTLDNKYVNWYQVRPGSAPATLIFHYEERDSGVPDRFSGSFDASSNSASLTISGLQTADEADYFCQSYDSKRDNLVVFGGGTKVTVL | binds |  |  | 
4 | mouse 5E3 expressed as human IgG1 Alya (antibody, V domains shown, Mouse variable domains on human IgG1 Alya constant (pEU1.22; 239iCys and S442C, EU numbering); purified, unconjugated; also called 5E3 IgG1 Alya) VH: QVQLQQPGAELVMPGASVKMSCKASGYTFTDYWMHWVKQRPGQGLEWIGAIDTSDSYTSYNQKFKGKATLTVDESSSTAYMQLSSLTSEDSAVYYCARDYGNFYYYAMDYWGQGTSVTVSS VL: QAVVTQESALTTSPGETVTLTCRSSTGAVTTSNYANWVQEKPDHLFTGLIGGTNNRAPGVPARFSGSLIGDKAALTITGAQTEDEAIYFCALWYSNHWVFGGGTKLTVL | binds | 0.3 nM | 38 pM | 89%
5 | 5Hg2-5Lg1 human Alya IgG1 (antibody, V domains shown, Humanised 5E3; human IgG1 Alya constant (239iCys, S442C, EU), lambda light chain; purified, unconjugated) VH: QVQLVQSGAEVKKPGASVKVSCKASGYTFTDYWMHWVRQAPGQRLEWMGAIDTSDSYTSYNQKFKGRVTITRDTSASTAYMELSSLRSEDTAVYYCARDYGNFYYYAMDYWGQGTLVTVSS VL: QAVVTQEPSLTVSPGGTVTLTCRSSTGAVTTSNYANWFQQKPGQAPRTLIYGTNNRAPWTPARFSGSLLGGKAALTLSGAQPEDEAEYYCALWYSNHWVFGGGTKLTVL | binds | 1.1 nM | 38 pM | 78%
6 | 5Hg2-5Lg2 human Alya IgG1 (antibody, V domains shown, Humanised 5E3; human IgG1 Alya constant (239iCys, S442C, EU), lambda light chain; purified, unconjugated) VH: QVQLVQSGAEVKKPGASVKVSCKASGYTFTDYWMHWVRQAPGQRLEWMGAIDTSDSYTSYNQKFKGRVTITRDTSASTAYMELSSLRSEDTAVYYCARDYGNFYYYAMDYWGQGTLVTVSS VL: QAVVTQEPSLTVSPGGTVTLTCRSSTGAVTTSNYANWFQQKPGQAPRTLIYGTNNRAPWTPARFSGSLLGGKAALTLLGAQPEDEAEYYCALWYSNHWVFGGGTKLTVL | binds | 1.1 nM | 52 pM | 83%
7 | 5Hg1-5Lg2 human Alya IgG1 (antibody, V domains shown, Humanised 5E3; human IgG1 Alya constant (239iCys, S442C, EU), lambda light chain; purified, unconjugated) VH: QVQLVQSGAEVKKPGASVKVSCKASGYTFTDYWMHWVRQAPGQGLEWMGAIDTSDSYTSYNQKFKGRVTMTRDTSTSTVYMELSSLRSEDTAVYYCARDYGNFYYYAMDYWGQGTLVTVSS VL: QAVVTQEPSLTVSPGGTVTLTCRSSTGAVTTSNYANWFQQKPGQAPRTLIYGTNNRAPWTPARFSGSLLGGKAALTLLGAQPEDEAEYYCALWYSNHWVFGGGTKLTVL | binds | 2.1 nM | 74 pM | 74%
8 | 5Hg1-5Lg1 human Alya IgG1 (antibody, V domains shown, Humanised 5E3; human IgG1 Alya constant (239iCys, S442C, EU), lambda light chain; purified, unconjugated) VH: QVQLVQSGAEVKKPGASVKVSCKASGYTFTDYWMHWVRQAPGQGLEWMGAIDTSDSYTSYNQKFKGRVTMTRDTSTSTVYMELSSLRSEDTAVYYCARDYGNFYYYAMDYWGQGTLVTVSS VL: QAVVTQEPSLTVSPGGTVTLTCRSSTGAVTTSNYANWFQQKPGQAPRTLIYGTNNRAPWTPARFSGSLLGGKAALTLSGAQPEDEAEYYCALWYSNHWVFGGGTKLTVL | binds | 2 nM | 66 pM | 76%
9 | C0120918 human Alya IgG1 (antibody, V domains shown, Fully human, phage display derived; human IgG1 Alya constant (239iCys, S442C, EU); unconjugated) VH: not shown VL: SYELTQPPSVSVSPGQTARITCSGDALPKQYAYWYQQKPGQAPVLVIYKDSERPSGIPERFSGSSSGTTVTLTISGVQAEDEADYYCQSADSSGTWVFGGGTKVTVL | binds |  |  | 
10 | C0120906 human Alya IgG1 (antibody, V domains shown, Fully human, phage display derived; human IgG1 Alya constant (239iCys, S442C, EU); unconjugated) VH: EVQLVQSGPEVKKPGASVKISCKASGYKLNDPGVHGVSWVRQAPGQGLEWMGWISTLNGDTRYAQKFQGRVTMATDSSTSTIYMDLRSLKSDDTALYYCARDDYTAIFDFWGRGTLVTVSS VL: QSVLTQPPSVSVAPGQTASITCGGSNIGSQSVHWYQQKPGQAPVLVVYDDSDRPSGIPERFSGSKSGNTASLILSRVEAGDEADYYCQVWDSSTDHHVFGTGTKVTVL | binds |  |  | 
11 | C0120903 human Alya IgG1 (antibody, V domains shown, Fully human, phage display derived; human IgG1 Alya constant (239iCys, S442C, EU); unconjugated) VH: EVQLVQSGAEVKKPGSSMKVSCKASGGTFNSYTINWVRQAPGQGLEWVGGFIPIFGTADYAQKFHGRVAITADESMSTAYMELSSLRSEDTAVYYCARAPLGSEPFDYWGQGTMVTVSS VL: SYVLTQPPSVSVAPGQTARITCGGNNIGSKSVHWYQQKPGQAPVLVVYDDSDRPSGIPERFSGSNSGNTATLTISRVEAGDEADYYCQVWDSSSDHLVFGGGTKLTVL | binds |  |  | 
